Assay results from paper PMC7689490, “Designed CXCR4 mimic acts as a soluble chemokine receptor that blocks atherogenic inflammation by agonist-specific targeting” (Nature Communications, 2020).
Several values for one entry are separate records, joined by “and”; a condition that tells them apart may be missing. Equal values may be shown once.

Legend:
[1] = molecular target: Fluos-msR4M-L1 (human) (UniProt P61073); experiment: other fluorescence titration; 5 nM Fluos-labeled ectodomain peptide titrated with unlabeled MIF, MIF peptide or CXCL12; 10 mM sodium phosphate, pH 7.4, 1% HFIP; emission at 522 nm; apparent KD, 1/1 binding model; one constant for each of three curves
[2] = molecular target: Fluos-ECL2 (fluorescein-labelled ECL2[182–196] peptide of CXCR4) (human) (UniProt P61073); experiment: other fluorescence titration; Fluos-labelled CXCR4 ectodomain peptide at 5 nM titrated with unlabelled MIF, MIF(10xAla), CXCL12 or MIF peptide fragments; 10 mM sodium phosphate, pH 7.4, 1% HFIP; emission at 522 nm; apparent KD, 1/1 binding model
[3] = molecular target: 5(6)-carboxytetramethylrhodamine (TAMRA)-msR4M-L1 (human) (UniProt P61073); experiment: MST; 100 nM TAMRA-msR4M-L1 titrated with MIF or CXCL12; 20 mM sodium phosphate, pH 7.2, Tween-20; 37 °C; apparent KD
[4] = molecular target: Fluos-msR4M-L1 (human) (UniProt P61073); experiment: fluorescence polarisation; 5 nM Fluos-msR4M-L1 titrated with unlabeled MIF (0.5 to 277.5 nM); 10 mM sodium phosphate, pH 7.2, 0.5% HFIP; RT; apparent KD

| Substance | Kd [1] | Kd [2] [nM] | Kd [3] | Kd [4] |
| --- | --- | --- | --- | --- |
| MIF peptide 54–80 (from UniProt P14174 54-80) | 86.6 nM and 59.7 nM and 65.3 nM |  |  |  |
| macrophage migration-inhibitory factor (MIF), recombinant human, unlabelled (from UniProt P14174 1-115) (natural protein) |  | > 5000 |  |  |
| macrophage migration-inhibitory factor (MIF), recombinant human (from UniProt P14174 1-115) (natural protein) | 44.7 nM and 40.4 nM and 36.9 nM |  | 51.7 nM and 120 nM and 60.1 nM | 24.1 nM and 19.3 nM and 29.9 nM |
| MIF peptide 38–80 (from UniProt P14174 38-80) | 64.6 nM and 49 nM and 57.7 nM |  |  |  |
